Residue numbers refer to the chain shown, from its start. Names and notes keep the numbering of the source.

Assay [1] has as its target T1, Recombinant Human DLL4 (R&D Systems Cat#1506-D4/CF) (human, UniProt Q9NR61 27-524).
T1 construct: Bought recombinant protein; also called delta-like protein 4; rHuman DLL4
Put plainly: ECL multispot (MSD) binding assay, DLL4 signal over blank spot; Fab concentration not given.

For assay [2], the target named is T1, Recombinant Human DLL4 (R&D Systems …). Put plainly: ECL multispot (MSD) binding assay, DLL4 spotted on plate, purified Fab in solution; Fab concentration not given.

B1: Fab VH1-46_IGHD6-6*01_IGHJ1*01 S102A/S103P/S104F/H111F (APFF) & L6_IGKJ1*01 S28I (Fab, V domains shown)
VH: QVQLVQSGAEVKKPGASVKVSCKASGYTFTSYYMHWVRQAPGQGLEWMGIINPSGGSTSYAQKFQGRVTMTRDTSTSTVYMELSSLRSEDTAVYYCAREEYAPFSAEYFQFWGQGTLVTVSS
VL: EIVLTQSPATLSLSPGERATLSCRASQIVSSYLAWYQQKPGQAPRLLIYDASNRATGIPARFSGSGSGTDFTLTISSLEPEDFAVYYCQQRSNWPPWTFGQGTKVEIKR
notes: Fab expressed in E. coli: VH joined to CH1 (Plasmid A, His6 and Flag tags), VL joined to kappa CL (Plasmid C); also called APFF S28I
With B1, the Signal/Blank in assay [1] was determined as 309. The “ECL signal” value in assay [2] stood at 106000.

B2: Fab VH1-46_IGHD6-6*01_IGHJ1*01 S102A/S103P/S104F/H111F (APFF) & L6_IGKJ1*01 S28L (Fab, V domains shown)
VH: B1 VH
VL: B1 VL with I28L
notes: Fab expressed in E. coli: VH joined to CH1 (Plasmid A, His6 and Flag tags), VL joined to kappa CL (Plasmid C); also called APFF S28L
Take B2: in assay [1], the Signal/Blank is 220. Further, the “ECL signal” value in assay [2] is 72300.

B3: Fab VH1-46_IGHD6-6*01_IGHJ1*01 S102A/S103P/S104F/H111F (APFF) & L6_IGKJ1*01 S30C (Fab, V domains shown)
VH: B1 VH
VL: B1 VL with I28S, S30C
notes: Fab expressed in E. coli: VH joined to CH1 (Plasmid A, His6 and Flag tags), VL joined to kappa CL (Plasmid C); also called APFF S30C
Turning to B3, in assay [1], the Signal/Blank worked out at 141. For the same molecule, the “ECL signal” value in assay [2] was determined as 129000.

B4: Fab VH1-46_IGHD6-6*01_IGHJ1*01 S102A/S103P/S104F/H111F (APFF) & L6_IGKJ1*01 S30W (Fab, V domains shown)
VH: B1 VH
VL: B1 VL with I28S, S30W
notes: Fab expressed in E. coli: VH joined to CH1 (Plasmid A, His6 and Flag tags), VL joined to kappa CL (Plasmid C); also called APFF S30W
For B4, the Signal/Blank in assay [1] was 660. The “ECL signal” value in assay [2] amounted to 191000.

B5: Fab VH1-46_IGHD6-6*01_IGHJ1*01 S102A/S103P/S104F/H111F (APFF) & L6_IGKJ1*01 S28P (Fab, V domains shown)
VH: B1 VH
VL: B1 VL with I28P
notes: Fab expressed in E. coli: VH joined to CH1 (Plasmid A, His6 and Flag tags), VL joined to kappa CL (Plasmid C); also called APFF S28P
As for B5, the Signal/Blank in assay [1] was 454. For the same molecule, the “ECL signal” value in assay [2] was found to be 178000.

B6: Fab VH1-46_IGHD6-6*01_IGHJ1*01 S102A/S103P/S104F/H111F (APFF) & L6_IGKJ1*01 S30L (Fab, V domains shown)
VH: B1 VH
VL: B1 VL with I28S, S30L
notes: Fab expressed in E. coli: VH joined to CH1 (Plasmid A, His6 and Flag tags), VL joined to kappa CL (Plasmid C); also called APFF S30L
Take B6: the Signal/Blank in assay [1] was found to be 524. For the same molecule, in assay [2], the “ECL signal” value came out at 199000.

B7: Fab VH1-46_IGHD6-6*01_IGHJ1*01 S102A/S103P/S104F/H111F (APFF) & L6_IGKJ1*01 S30Q (Fab, V domains shown)
VH: B1 VH
VL: B1 VL with I28S, S30Q
notes: Fab expressed in E. coli: VH joined to CH1 (Plasmid A, His6 and Flag tags), VL joined to kappa CL (Plasmid C); also called APFF S30Q
Regarding B7, in assay [1], the Signal/Blank came to 1020. Moreover, the “ECL signal” value in assay [2] is 203000.

B8: Fab VH1-46_IGHD6-6*01_IGHJ1*01 S102A/S103P/S104F/H111F (APFF) & L6_IGKJ1*01 S28Q (Fab, V domains shown)
VH: B1 VH
VL: B1 VL with I28Q
notes: Fab expressed in E. coli: VH joined to CH1 (Plasmid A, His6 and Flag tags), VL joined to kappa CL (Plasmid C); also called APFF S28Q
As to B8, in assay [1], the Signal/Blank was determined as 378. For the same molecule, the “ECL signal” value in assay [2] was determined as 133000.

B9: Fab VH1-46_IGHD6-6*01_IGHJ1*01 S102A/S103P/S104F/H111F (APFF) & L6_IGKJ1*01 S30T (Fab, V domains shown)
VH: B1 VH
VL: B1 VL with I28S, S30T
notes: Fab expressed in E. coli: VH joined to CH1 (Plasmid A, His6 and Flag tags), VL joined to kappa CL (Plasmid C); also called APFF S30T
Regarding B9, in assay [1], the Signal/Blank worked out at 300. For the same molecule, in assay [2], the “ECL signal” value was determined as 122000.

B10: Fab VH1-46_IGHD6-6*01_IGHJ1*01 S102A/S103P/S104F/H111F (APFF) & L6_IGKJ1*01 S28N (Fab, V domains shown)
VH: B1 VH
VL: B1 VL with I28N
notes: Fab expressed in E. coli: VH joined to CH1 (Plasmid A, His6 and Flag tags), VL joined to kappa CL (Plasmid C); also called APFF S28N
Regarding B10, in assay [1], the Signal/Blank is 778. For the same molecule, the “ECL signal” value in assay [2] is 204000.

B11: Fab VH1-46_IGHD6-6*01_IGHJ1*01 S102A/S103P/S104F/H111F (APFF) & L6_IGKJ1*01 S30D (Fab, V domains shown)
VH: B1 VH
VL: B1 VL with I28S, S30D
notes: Fab expressed in E. coli: VH joined to CH1 (Plasmid A, His6 and Flag tags), VL joined to kappa CL (Plasmid C); also called APFF S30D
B11: the Signal/Blank in assay [1] amounted to 568. For the same molecule, the “ECL signal” value in assay [2] was 225000.

B12: Fab VH1-46_IGHD6-6*01_IGHJ1*01 S102A/S103P/S104F/H111F (APFF) & L6_IGKJ1*01 S28M (Fab, V domains shown)
VH: B1 VH
VL: B1 VL with I28M
notes: Fab expressed in E. coli: VH joined to CH1 (Plasmid A, His6 and Flag tags), VL joined to kappa CL (Plasmid C); also called APFF S28M
Consider B12, for which the Signal/Blank in assay [1] came to 336. Also, the “ECL signal” value in assay [2] worked out at 108000.

B13: Fab VH1-46_IGHD6-6*01_IGHJ1*01 S102A/S103P/S104F/H111F (APFF) & L6_IGKJ1*01 S28W (Fab, V domains shown)
VH: B1 VH
VL: B1 VL with I28W
notes: Fab expressed in E. coli: VH joined to CH1 (Plasmid A, His6 and Flag tags), VL joined to kappa CL (Plasmid C); also called APFF S28W
Consider B13, for which the Signal/Blank in assay [1] was 545. In assay [2], the “ECL signal” value amounted to 165000.

B14: Fab VH1-46_IGHD6-6*01_IGHJ1*01 S102A/S103P/S104F/H111F (APFF) & L6_IGKJ1*01 S30P (Fab, V domains shown)
VH: B1 VH
VL: B1 VL with I28S, S30P
notes: Fab expressed in E. coli: VH joined to CH1 (Plasmid A, His6 and Flag tags), VL joined to kappa CL (Plasmid C); also called APFF S30P
For B14, the Signal/Blank in assay [1] was determined as 4.4. Moreover, the “ECL signal” value in assay [2] stood at 1140.

B15: Fab VH1-46_IGHD6-6*01_IGHJ1*01 S102A/S103P/S104F/H111F (APFF) & L6_IGKJ1*01 S30G (Fab, V domains shown)
VH: B1 VH
VL: B1 VL with I28S, S30G
notes: Fab expressed in E. coli: VH joined to CH1 (Plasmid A, His6 and Flag tags), VL joined to kappa CL (Plasmid C); also called APFF S30G
As to B15, the Signal/Blank in assay [1] worked out at 664. The “ECL signal” value in assay [2] turned out to be 180000.

B16: Fab VH1-46_IGHD6-6*01_IGHJ1*01 S102A/S103P/S104F/H111F (APFF) & L6_IGKJ1*01 S30R (Fab, V domains shown)
VH: B1 VH
VL: B1 VL with I28S, S30R
notes: Fab expressed in E. coli: VH joined to CH1 (Plasmid A, His6 and Flag tags), VL joined to kappa CL (Plasmid C); also called APFF S30R
Take B16: the Signal/Blank in assay [1] turned out to be 350. The “ECL signal” value in assay [2] was 146000.

B17: Fab VH1-46_IGHD6-6*01_IGHJ1*01 S102A/S103P/S104F/H111F (APFF) & L6_IGKJ1*01 S28T (Fab, V domains shown)
VH: B1 VH
VL: B1 VL with I28T
notes: Fab expressed in E. coli: VH joined to CH1 (Plasmid A, His6 and Flag tags), VL joined to kappa CL (Plasmid C); also called APFF S28T
For B17, the Signal/Blank in assay [1] came to 522. The “ECL signal” value in assay [2] was 159000.

B18: Fab VH1-46_IGHD6-6*01_IGHJ1*01 S102A/S103P/S104F/H111F (APFF) & L6_IGKJ1*01 S30A (Fab, V domains shown)
VH: B1 VH
VL: B1 VL with I28S, S30A
notes: Fab expressed in E. coli: VH joined to CH1 (Plasmid A, His6 and Flag tags), VL joined to kappa CL (Plasmid C); also called APFF S30A
For the molecule B18, in assay [1], the Signal/Blank was 516. Also, the “ECL signal” value in assay [2] is 184000.

B19: Fab VH1-46_IGHD6-6*01_IGHJ1*01 S102A/S103P/S104F/H111F (APFF) & L6_IGKJ1*01 S28R (Fab, V domains shown)
VH: B1 VH
VL: B1 VL with I28R
notes: Fab expressed in E. coli: VH joined to CH1 (Plasmid A, His6 and Flag tags), VL joined to kappa CL (Plasmid C); also called APFF S28R
Turning to B19, the Signal/Blank in assay [1] was found to be 246. Moreover, in assay [2], the “ECL signal” value was 110000.

Values taken from patent US20120316071A1 (published 2012).
